Reference: the supplement of paper PMC9170038

Test system: MS2 coat protein
Assay: apparent KD of MS2 coat protein; designed switch direction (-1 OFF switch, 1 ON switch): -1; higher = weaker reporter binding
Procedure, shortened: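 An oligonucleotide input, 200 uM small-molecule ligand, or no input was present during titration of SNAP-549-labelled MS2 coat protein, which was doubled from 0.7 or 1.5 nM to 3 µM. Designed RNA switches had been transcribed on Illumina chips by stalled E. coli RNA polymerase. Apparent KD per design is the median over clusters of curves fitted to normalised cluster fluorescence.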

[1] = input ligand: microRNA oligo, concentration not stated
[2] = Eterna round: R95, input ligand: microRNA oligo, concentration not stated
[3] = Eterna round: R95, input ligand: FMN 200 uM
[4] = Eterna round: R95, input ligand: none

Sequence	apparent KD of MS2 coat protein (input ligand: FMN 200 uM)	apparent KD of MS2 coat protein (input ligand: none)	also measured
UUUUACAUGCUGAGAUCCUACAUGAGGAUCACCCAUGUGGUCCGGUGACGUGAGUCACCGGACUUAGCUCGUCUUGU [salish99_S_TOV1_R5_099] (Eterna round: R97, puzzle: Sensor, turn-off variant 1)	186 nM	304 nM	
UUUGUUUAUGUAGGAUAUGCCUGGCGUGCCUUUGCAGAAGGACAUGAGGAUCACCCAUGUAACAUGAGGCUCACCCAUGUCGCG [salish99_ExNG1_r04_112] (Eterna round: R96, puzzle: Exclusion NG 1)	285 nM	277 nM	apparent KD of MS2 coat protein [1]: 152 nM
AGUAGGAGAGGAUAUACAAGAAGUCGAAAGACUUCAACUCAACAUGAGGAUCACCCAUGUAGAAGGCUCCUACA [Omei Ex2 BD A5] (Eterna round: R97, puzzle: Exclusion 2)	83.3 nM	17.9 nM	
GUAGAGUCAGGAUAUACAAAUAGAUCGAAAGAUCAAUCCAUACAUGAGGAUCACCCAUGUAGAAGGGACUCUAC [Eli x2 4.15] (Eterna round: R97, puzzle: Exclusion 2)	20.5 nM	16.7 nM	
CUUUCGUGAGGAUAUCAGUAGUAAAAAAAUAAAAUUACUACUGAGAAGGCACAUGAGGAUCACCCAUGUUCCUC [salish99_ex3_r3_097] (puzzle: Exclusion 4)			apparent KD of MS2 coat protein [2]: 25.7 nM
CUUAUGUCAGGAUAUUAGUAGUAAAUGAAUAAAAUUAUUACUGAGAAGGGACAUGAGGAUCACCCAUGUUCCUC [Mat - Exclusion 4 - Eli Mod - D4] (Eterna round: R97, puzzle: Exclusion 4)	149 nM	19.6 nM	
UGUACCAUAGGAUAUACAUGAGGAUCACCCAUGUUAAUACGAUAUGUAAUGGUUACUUGUAGAAGGAUGAAAAG [Eternabot (L1) Solution 29] (Eterna round: R97, puzzle: Exclusion 3)	14.9 nM	11 nM	
AAGCCUCAGGUUAGGAUAUACGCCUGGCCGAAGGAGUAGAAGGGACAUGAGGAUCACCCAUGUGGGUUCAAAAG [Atanvege] (puzzle: Brourd's mod of Exclusion 4)			apparent KD of MS2 coat protein [3]: 52.5 nM; apparent KD of MS2 coat protein [2]: 43 nM; apparent KD of MS2 coat protein [4]: 44.9 nM
GCAUUGAGUGUGAGGAUAUGCUGGUCCUUGGAUCAGCAGAAGGCACAUGAGGAUCACCCAUGUGAAAACAAUGC [JL bmx4 3.12] (puzzle: Brourd's mod of Exclusion 4)			apparent KD of MS2 coat protein [3]: 125 nM; apparent KD of MS2 coat protein [2]: 19.2 nM; apparent KD of MS2 coat protein [4]: 20.3 nM
UUGAUGUCAUCAGGAUAUAGUAUUUAAGACAUAUCUUCUUUCAAACAUGAGGAUCACCCAUGUCGCUAGAAGGGAUUAUUGAUU [JR_ExcNG2_Sub083] (Eterna round: R96, puzzle: Exclusion NG 2)			apparent KD of MS2 coat protein [1]: 11.4 nM
CACACCUCCGUCAGGAUAUUAAGGCACCGCCGCCAUGAGAAGGGACAUGAGGAUCACCCAUGUUAAUCGUGGAA [Betibier] (Eterna round: R97, puzzle: Brourd's mod of Exclusion 4)	226 nM	20.5 nM	
AGCUGUGGCCGAGGAUAUCUAAUAACUCAAACCGAAAUAUAAUCGGACAUGAGGAUCACCCAUGUAGAGAAGGCGGUCUCAGCA [Eli eng2 - 063] (Eterna round: R96, puzzle: Exclusion NG 2)			apparent KD of MS2 coat protein [1]: 69.8 nM
CUGGGUCGUGUUAGGAUAUGCUCUAGAAAGUUAGGGUAGAAGGAACAUGAGGAUCACCCAUGUGACUUCACUAG [BmEX4 B.27] (Eterna round: R97, puzzle: Brourd's mod of Exclusion 4)	23.6 nM	15.4 nM	
ACGAGGUCAGGAUAUACAGAGAGAAGGAGUUGGUUGAGGUAACAUGAGGAUCACCCAUGUAGAAGGGACUGGGA [JR_Exclu2_Sub081] (puzzle: Exclusion 2)			apparent KD of MS2 coat protein [3]: 48 nM; apparent KD of MS2 coat protein [2]: 31.2 nM; apparent KD of MS2 coat protein [4]: 34.9 nM
